Data from article PMC8646365.

Molecular target: cancer-testis antigen Ny-ESO-1 peptide on HLA-A*02:01 (human)
Experiment: NFAT-luciferase, TCR-KO CD8+ Jurkat

## 1G4_a95LY TCR
  EC50 of peptide: 50 pM
